Measured values taken from publication PMC3507621.

B1: wild type recombinant N-terminal region of PTX3 (N_PTX3) [human] / mouse TSG-6 (tumor necrosis factor-induced protein 6) [mouse] (parent)
chain 1: ENSDDYDLMYVNLDNEIDNGLHPTEDPTPCACGQEHSEWDKLFIMLENSQMRERMLLQATDDVLRGELQRLREELGRLAESLARPCAPGAPAEARLTSALDELLQATRDAGRRLARMEGAEAQRPEEAGRALAAVLEELRQTRADLHAVQGWATG
chain 2: WGFKNGIFHNSIWLEQAAGVYHREARAGRYKLTYAEAKAVCEFEGGRLATYKQLEAARKIGFHVCAAGWMAKGRVGYPIVKPGPNCGFGKTGIIDYGIRLNRSERWDAYCYNPHAKECGGVFTDPKRIFKSPGFPNEYDDNQVCYWHIRLKYGQRIHLSFLDFDLEHDPGCLADYVEIYDSYDDVHGFVGRYCGDELPEDIISTGNVMTLKFLSDASVTAGGFQIKYVTVDPASKSSQAKNTSTTGNKKFLPGRFSHL
B2: wild type recombinant N-terminal region of PTX3 (N_PTX3) [human] / mouse TSG-6 (tumor necrosis factor-induced protein 6) [mouse] (parent)
chain 1: B1 chain 2
chain 2: B1 chain 1

How the values were obtained:
[1] = variants of: B1; assay: competition ELISA (bPTX3 detected with HRP-conjugated streptavidin); details: with mouse TSG-6 (tumor necrosis factor-induced protein 6) [mouse], wells coated with TSG-6, read off a plot
[2] = variants of: B2; assay: ELISA; details: with mouse TSG-6 (tumor necrosis factor-induced protein 6) [mouse], pH 7.4, PBS with Ca2+ and Mg2+, read off a plot
[3] = TSG-6 about 0.38 nM (est. from x axis), parent: 0.29
[4] = TSG-6 about 1.6 nM (est. from x axis), parent: 0.91
[5] = TSG-6 about 6.2 nM (est. from x axis), parent: 1.7
[6] = TSG-6 about 26 nM (est. from x axis), parent: 2.2
[7] = TSG-6 about 100 nM (est. from x axis), parent: 2.3

Variant	screen value ([1]; competitor about 0.24 nM (est. from x axis), parent: 99) [%]	screen value ([1]; competitor about 1.2 nM (est. from x axis), parent: 90) [%]	screen value ([1]; competitor about 12 nM (est. from x axis), parent: 82) [%]	screen value ([1]; competitor about 120 nM (est. from x axis), parent: 58) [%]	screen value ([1]; competitor about 1200 nM (est. from x axis), parent: 17) [%]	response [2, 3]	response [2, 4]	response [2, 5]	response [2, 6]	response [2, 7]
chain 1 C30S C32S C86S	97	93	84	64	29					
chain 2 C30S C32S						0.14 O.D. (450nm)	0.5 O.D. (450nm)	1.1 O.D. (450nm)	1.9 O.D. (450nm)	2.2 O.D. (450nm)
chain 2 C86S						0.3 O.D. (450nm)	0.91 O.D. (450nm)	1.6 O.D. (450nm)	2.2 O.D. (450nm)	2.3 O.D. (450nm)
chain 2 C30S C32S C86S						0.31 O.D. (450nm)	0.91 O.D. (450nm)	1.7 O.D. (450nm)	2.2 O.D. (450nm)	2.2 O.D. (450nm)
